Assay results: PMC10367076, “Mechanistic and Structural Insights into a Divergent PLP-Dependent L-Enduracididine Cyclase from a Toxic Cyanobacterium” (ACS Catalysis, 2023)

Key:
[1] = target: GntC S25A (Sphaerospermopsis torques-reginae ITEP-024); assay: SEC; analytical size exclusion chromatography of purified wild-type GntC and mutants
[2] = target: Sphaerospermopsis torques-reginae ITEP-024 GntC (Sphaerospermopsis torques-reginae ITEP-024); assay: as above
[3] = target: GntC N52Q (Sphaerospermopsis torques-reginae ITEP-024); assay: as above
[4] = target: GntC K219A (Sphaerospermopsis torques-reginae ITEP-024); assay: as above
[5] = target: GntC T84V (Sphaerospermopsis torques-reginae ITEP-024); assay: as above
[6] = target: GntC E9Q (Sphaerospermopsis torques-reginae ITEP-024); assay: as above
[7] = target: GntC N52D (Sphaerospermopsis torques-reginae ITEP-024); assay: as above
[8] = system: N=C(N)NC[C@@H](O)C[C@H](N)C(=O)O; assay: purified protein; details: KPi buffer; PLP cofactor co-purified; cyclodehydration to L-enduracididine
[9] = target: GntC E9D (Sphaerospermopsis torques-reginae ITEP-024); assay: SEC; analytical size exclusion chromatography of purified wild-type GntC and mutants
[10] = target: GntC E9A (Sphaerospermopsis torques-reginae ITEP-024); assay: as above
[11] = target: GntC N52A (Sphaerospermopsis torques-reginae ITEP-024); assay: as above
[12] = target: GntC T84A (Sphaerospermopsis torques-reginae ITEP-024); assay: as above

Work on GntC S25A (enzyme) yielded a stoichiometry N [1] of 2.

Substance “Sphaerospermopsis torques-reginae ITEP-024 GntC (enzyme)” has a stoichiometry N [2] of 2.

With GntC N52Q (enzyme) the stoichiometry N [3] was 2.

GntC K219A (enzyme) was tested, and the stoichiometry N [4] was 2.

With GntC T84V (enzyme) the stoichiometry N [5] was 2.

In the case of GntC E9Q (enzyme), the stoichiometry N [6] is reported as 2.

GntC N52D (enzyme) gave a stoichiometry N [7] of 2.

In the case of “GntC (Sphaerospermopsis torques-reginae ITEP-024)”, the Km [8] is reported as 150 ± 80 µM and the kcat [8] is reported as 0.0061 ± 0.008 min^–1.

Substance GntC E9D (enzyme) has a stoichiometry N [9] of 2.

Work on GntC E9A (enzyme) yielded a stoichiometry N [10] of 2.

Work on GntC N52A (enzyme) yielded a stoichiometry N [11] of 2.

Substance GntC T84A (enzyme) has a stoichiometry N [12] of 2.
